Tests used:
[1] = target: Fc-tagged fibre 1 of the novel FAdV-4 (fowl adenovirus serotype 4 (FAdV-4), strain HLJFAd15)
[2] = target: Fc-tagged fibre 1 of the novel FAdV-4 (fowl adenovirus serotype 4 (FAdV-4), strain HLJFAd15); remark: listed apart in the source

Substance	block of FAdV-4 infectivity in LMH cells (qPCR at 24 hpi) after pre-incubation of the virus with 12.5 or 25.0 ng/μl D2-CAR; 78% at 12.5 ng/μl, 99.9% at 25 ng/μl [1]	block of FAdV-4 infection of LMH cells (qPCR at 24 hpi) after pre-incubation of the virus with 3.125–12.5 ng/μl soluble CAR protein; Fc protein as negative control [2]
D2 domain of chicken CAR, soluble, His-tagged (domain or fragment)	99.9%	
Fc-tagged CAR protein, soluble (Fc fusion)		76 to 80%

From publication PMC7144210
